Data: the supplement of paper PMC10065799, “High-throughput profiling of sequence recognition by tyrosine kinases and SH2 domains using bacterial peptide display” (eLife, 2023)

Key:
c-Src = experiment: phosphorylation enrichment, bacterial display (enrichment ratio); higher = better substrate or ligand; peptides without Tyr show the background
Hck = Hck (UniProt P08631); experiment: as above
c-Abl (mouse) = experiment: as above
Jak2 = Jak2 (UniProt O60674); experiment: as above
Fes = Fes (UniProt P07332); experiment: as above
AncSZ = experiment: as above
Fer (mouse) = experiment: as above
EPHB1 = EPHB1 (UniProt P54762); experiment: as above
Fyn = Fyn (UniProt P06241); experiment: as above
EPHB2 = EPHB2 (UniProt P29323); experiment: as above
MERTK = MERTK (UniProt Q12866); experiment: as above
FGFR3 = FGFR3 (UniProt P22607); experiment: as above
FGFR1 = FGFR1 (UniProt P11362); experiment: as above
Grb2 SH2 = Grb2 SH2 (UniProt P62993); experiment: SH2 binding enrichment of the phosphorylated peptide, bacterial display (enrichment ratio); higher = better substrate or ligand; peptides without Tyr show the background
SHP2-C SH2 = experiment: as above
c-Src SH2 = experiment: as above
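Throughout, for SH2 binding enrichment of the phosphorylated peptide, bacterial display: peptide library displayed on the E. coli surface as eCPX fusions, selected cells deep-sequenced, score is each peptide's frequency after selection divided by its frequency in the input.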
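Throughout, for phosphorylation enrichment, bacterial display: 11-residue human phosphosite peptides and single-mutation variants displayed on the E. coli surface, counted by deep sequencing, each peptide's frequency after selection divided by its frequency in the unselected input library; frequency after pTyr selection over input frequency; kinase dosed for 20-30% of maximal phosphorylation in three min.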

Jak2, sequence (O60674 whole entry, looked up): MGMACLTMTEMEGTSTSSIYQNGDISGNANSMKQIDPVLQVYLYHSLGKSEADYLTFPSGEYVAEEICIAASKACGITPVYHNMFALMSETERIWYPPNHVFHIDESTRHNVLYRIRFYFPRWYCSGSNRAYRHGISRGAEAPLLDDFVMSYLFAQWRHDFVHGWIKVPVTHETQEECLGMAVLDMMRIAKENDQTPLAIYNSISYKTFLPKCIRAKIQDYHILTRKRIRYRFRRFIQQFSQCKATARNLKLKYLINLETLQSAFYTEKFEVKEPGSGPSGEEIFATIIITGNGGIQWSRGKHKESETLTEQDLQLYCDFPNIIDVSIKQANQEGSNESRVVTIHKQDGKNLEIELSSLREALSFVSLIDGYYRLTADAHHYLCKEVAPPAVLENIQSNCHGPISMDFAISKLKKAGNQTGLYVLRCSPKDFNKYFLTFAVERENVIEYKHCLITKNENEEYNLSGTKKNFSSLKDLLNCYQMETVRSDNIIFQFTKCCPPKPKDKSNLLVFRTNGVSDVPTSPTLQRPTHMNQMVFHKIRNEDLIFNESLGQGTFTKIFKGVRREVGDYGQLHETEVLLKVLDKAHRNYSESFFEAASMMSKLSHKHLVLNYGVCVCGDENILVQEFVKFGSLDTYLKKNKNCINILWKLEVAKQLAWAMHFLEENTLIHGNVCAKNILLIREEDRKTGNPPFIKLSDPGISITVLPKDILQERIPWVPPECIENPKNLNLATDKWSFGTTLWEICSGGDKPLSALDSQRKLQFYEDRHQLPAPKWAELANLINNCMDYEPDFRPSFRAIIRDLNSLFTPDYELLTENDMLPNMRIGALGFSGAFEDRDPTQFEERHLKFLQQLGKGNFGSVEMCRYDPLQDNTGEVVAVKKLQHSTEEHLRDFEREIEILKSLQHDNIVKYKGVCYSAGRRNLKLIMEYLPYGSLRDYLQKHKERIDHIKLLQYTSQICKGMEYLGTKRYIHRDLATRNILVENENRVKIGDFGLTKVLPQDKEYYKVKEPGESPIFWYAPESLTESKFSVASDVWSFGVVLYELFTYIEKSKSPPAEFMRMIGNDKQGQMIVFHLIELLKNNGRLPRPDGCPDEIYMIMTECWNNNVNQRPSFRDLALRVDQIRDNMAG
FGFR3, sequence (P22607 whole entry, looked up): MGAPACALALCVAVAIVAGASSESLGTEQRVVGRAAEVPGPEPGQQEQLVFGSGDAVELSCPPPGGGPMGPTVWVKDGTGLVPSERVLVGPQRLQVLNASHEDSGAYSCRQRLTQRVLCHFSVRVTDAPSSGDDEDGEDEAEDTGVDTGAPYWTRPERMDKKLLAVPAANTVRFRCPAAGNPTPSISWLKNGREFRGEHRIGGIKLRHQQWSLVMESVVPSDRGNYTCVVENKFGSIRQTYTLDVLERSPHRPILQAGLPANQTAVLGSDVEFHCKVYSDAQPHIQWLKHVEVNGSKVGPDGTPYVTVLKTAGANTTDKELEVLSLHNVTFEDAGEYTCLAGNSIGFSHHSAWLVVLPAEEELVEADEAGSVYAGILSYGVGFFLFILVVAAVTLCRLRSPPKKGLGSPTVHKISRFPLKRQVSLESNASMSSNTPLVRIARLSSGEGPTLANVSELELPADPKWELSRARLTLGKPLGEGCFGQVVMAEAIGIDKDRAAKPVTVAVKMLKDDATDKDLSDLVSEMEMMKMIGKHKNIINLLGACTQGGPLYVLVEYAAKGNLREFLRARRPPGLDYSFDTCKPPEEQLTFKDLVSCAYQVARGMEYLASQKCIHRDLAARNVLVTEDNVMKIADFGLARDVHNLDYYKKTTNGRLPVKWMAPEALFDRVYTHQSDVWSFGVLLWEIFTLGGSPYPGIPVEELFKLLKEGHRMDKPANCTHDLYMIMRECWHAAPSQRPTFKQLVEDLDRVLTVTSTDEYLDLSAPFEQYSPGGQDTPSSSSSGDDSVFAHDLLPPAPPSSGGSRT
Hck, sequence (P08631 whole entry, looked up): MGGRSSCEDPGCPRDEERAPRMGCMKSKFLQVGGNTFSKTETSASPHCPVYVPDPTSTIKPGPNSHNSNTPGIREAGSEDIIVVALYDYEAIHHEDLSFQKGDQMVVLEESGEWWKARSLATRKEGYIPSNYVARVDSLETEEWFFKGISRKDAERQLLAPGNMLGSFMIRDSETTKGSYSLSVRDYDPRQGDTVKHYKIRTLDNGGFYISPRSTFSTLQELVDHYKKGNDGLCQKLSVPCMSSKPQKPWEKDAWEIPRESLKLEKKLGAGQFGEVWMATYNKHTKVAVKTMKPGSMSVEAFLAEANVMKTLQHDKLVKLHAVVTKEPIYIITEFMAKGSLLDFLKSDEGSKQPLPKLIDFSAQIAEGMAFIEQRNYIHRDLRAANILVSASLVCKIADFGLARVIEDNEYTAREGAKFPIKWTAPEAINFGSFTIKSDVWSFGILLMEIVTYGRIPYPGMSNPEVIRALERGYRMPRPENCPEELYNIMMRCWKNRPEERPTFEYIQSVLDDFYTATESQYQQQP
EPHB1, sequence (P54762 whole entry, looked up): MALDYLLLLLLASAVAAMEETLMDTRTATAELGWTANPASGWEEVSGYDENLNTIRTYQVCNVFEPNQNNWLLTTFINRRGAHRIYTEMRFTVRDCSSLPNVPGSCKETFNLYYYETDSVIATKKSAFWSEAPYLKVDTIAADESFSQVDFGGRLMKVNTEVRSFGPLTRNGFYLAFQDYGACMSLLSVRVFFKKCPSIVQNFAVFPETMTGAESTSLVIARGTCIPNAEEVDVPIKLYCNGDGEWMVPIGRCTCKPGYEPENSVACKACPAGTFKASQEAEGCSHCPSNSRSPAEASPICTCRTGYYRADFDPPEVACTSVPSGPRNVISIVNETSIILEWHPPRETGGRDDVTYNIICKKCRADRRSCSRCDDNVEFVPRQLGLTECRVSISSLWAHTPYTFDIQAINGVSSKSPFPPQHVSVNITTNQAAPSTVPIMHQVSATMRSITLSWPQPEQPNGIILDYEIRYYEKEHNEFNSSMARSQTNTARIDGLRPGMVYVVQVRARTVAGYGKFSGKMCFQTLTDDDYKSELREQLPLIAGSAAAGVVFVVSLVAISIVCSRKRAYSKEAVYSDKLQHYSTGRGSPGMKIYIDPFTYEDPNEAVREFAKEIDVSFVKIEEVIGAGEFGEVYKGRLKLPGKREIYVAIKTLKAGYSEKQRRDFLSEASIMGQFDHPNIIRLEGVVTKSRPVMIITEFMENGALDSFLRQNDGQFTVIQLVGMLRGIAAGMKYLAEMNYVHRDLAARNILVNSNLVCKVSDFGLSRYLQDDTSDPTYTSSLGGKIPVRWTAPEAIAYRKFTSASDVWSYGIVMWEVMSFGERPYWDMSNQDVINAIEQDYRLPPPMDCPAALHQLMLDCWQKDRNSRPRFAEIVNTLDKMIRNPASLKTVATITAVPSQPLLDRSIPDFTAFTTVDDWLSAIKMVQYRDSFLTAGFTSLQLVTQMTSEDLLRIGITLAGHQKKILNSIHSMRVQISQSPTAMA
MERTK, sequence (Q12866 whole entry, looked up): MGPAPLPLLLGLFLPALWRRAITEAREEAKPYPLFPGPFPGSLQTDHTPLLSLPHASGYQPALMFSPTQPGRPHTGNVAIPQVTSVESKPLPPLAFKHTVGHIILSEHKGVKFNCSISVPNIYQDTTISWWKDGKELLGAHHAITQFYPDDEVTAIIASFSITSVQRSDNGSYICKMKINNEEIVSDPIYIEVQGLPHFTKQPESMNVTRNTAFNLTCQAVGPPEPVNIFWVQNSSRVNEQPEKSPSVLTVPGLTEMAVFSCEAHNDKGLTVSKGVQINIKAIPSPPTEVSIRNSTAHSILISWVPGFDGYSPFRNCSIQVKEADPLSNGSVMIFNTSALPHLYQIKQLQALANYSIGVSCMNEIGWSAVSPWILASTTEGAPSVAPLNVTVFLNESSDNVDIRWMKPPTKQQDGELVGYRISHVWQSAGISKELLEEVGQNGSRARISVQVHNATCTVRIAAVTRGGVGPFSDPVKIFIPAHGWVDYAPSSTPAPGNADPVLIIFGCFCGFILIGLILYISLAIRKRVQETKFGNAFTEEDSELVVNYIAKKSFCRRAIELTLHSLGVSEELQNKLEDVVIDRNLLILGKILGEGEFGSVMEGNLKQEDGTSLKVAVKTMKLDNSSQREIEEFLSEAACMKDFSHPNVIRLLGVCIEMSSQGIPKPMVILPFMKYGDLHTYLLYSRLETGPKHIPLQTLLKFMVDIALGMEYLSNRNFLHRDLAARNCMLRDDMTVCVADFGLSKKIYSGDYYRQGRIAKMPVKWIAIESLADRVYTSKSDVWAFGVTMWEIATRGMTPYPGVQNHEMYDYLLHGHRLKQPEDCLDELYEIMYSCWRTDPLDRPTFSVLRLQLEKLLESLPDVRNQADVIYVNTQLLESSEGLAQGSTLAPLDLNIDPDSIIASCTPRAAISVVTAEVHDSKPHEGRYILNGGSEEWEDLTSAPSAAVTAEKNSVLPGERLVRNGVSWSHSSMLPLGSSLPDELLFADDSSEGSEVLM
Fyn, sequence (P06241 whole entry, looked up): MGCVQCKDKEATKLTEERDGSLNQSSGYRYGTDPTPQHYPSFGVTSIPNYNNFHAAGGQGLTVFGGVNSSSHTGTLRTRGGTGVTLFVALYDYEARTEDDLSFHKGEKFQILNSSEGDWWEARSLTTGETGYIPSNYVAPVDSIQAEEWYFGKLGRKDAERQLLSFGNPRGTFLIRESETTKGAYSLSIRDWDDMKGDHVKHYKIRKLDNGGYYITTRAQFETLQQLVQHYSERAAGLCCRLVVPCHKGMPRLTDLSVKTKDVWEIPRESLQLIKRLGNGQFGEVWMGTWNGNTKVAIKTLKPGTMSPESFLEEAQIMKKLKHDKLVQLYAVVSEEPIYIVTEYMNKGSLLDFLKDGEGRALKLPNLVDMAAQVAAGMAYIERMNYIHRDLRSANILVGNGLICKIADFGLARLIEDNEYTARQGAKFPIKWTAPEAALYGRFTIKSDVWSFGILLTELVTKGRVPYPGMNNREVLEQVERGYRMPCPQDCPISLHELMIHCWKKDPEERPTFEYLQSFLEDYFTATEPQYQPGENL

| Sequence | SH2 binding enrichment (Grb2 SH2) | SH2 binding enrichment (SHP2-C SH2) | SH2 binding enrichment (c-Src SH2) | phosphorylation enrichment (c-Src) | phosphorylation enrichment (Hck) | phosphorylation enrichment (c-Abl (mouse)) | phosphorylation enrichment (Jak2) | phosphorylation enrichment (Fes) | phosphorylation enrichment (AncSZ) | phosphorylation enrichment (Fer (mouse)) | phosphorylation enrichment (EPHB1) | phosphorylation enrichment (Fyn) | phosphorylation enrichment (EPHB2) | phosphorylation enrichment (MERTK) | phosphorylation enrichment (FGFR3) | phosphorylation enrichment (FGFR1) |
| --- | --- | --- | --- | --- | --- | --- | --- | --- | --- | --- | --- | --- | --- | --- | --- | --- |
| YSDPSYVKQME [CDC5L_Y464] | 0.8 | 0.608 | 1.05 | 0.473 | 0.593 | 0.537 | 0.557 | 0.817 | 1.1 | 0.409 | 0.392 | 0.434 | 0.57 | 0.578 | 0.716 | 0.985 |
| SILAVYSKDNY [PANK2_Y400] | 0.681 | 0.612 | 0.855 | 1.11 | 0.875 | 0.653 | 0.549 | 0.664 | 0.925 | 0.425 | 0.478 | 0.756 | 0.486 | 0.588 | 0.524 | 0.451 |
| NVGGKYSYLKV [GRM3_Y478] | 1.08 | 1.43 | 2.27 | 0.351 | 0.515 | 0.524 | 0.635 | 0.65 | 0.625 | 0.446 | 0.415 | 0.358 | 0.39 | 0.448 | 0.476 | 0.449 |
| HLVLNYGVCIC [JAK2_Y613_V617I] | 0.985 | 0.597 | 0.614 | 0.576 | 0.484 | 1.52 | 1.68 | 2.09 | 1.52 | 0.67 | 1.39 | 0.551 | 0.92 | 0.535 | 1.46 | 0.607 |
| GSSEDYLHMVH [NIPBL_Y247] | 0.743 | 0.556 | 0.465 | 0.524 | 0.449 | 0.646 | 0.874 | 0.874 | 0.978 | 0.416 | 0.475 | 0.423 | 0.473 | 0.485 | 1 | 1.07 |
| ENRKYYMDLKE [PURA_Y156] | 0.761 | 0.657 | 0.874 | 0.331 | 0.543 | 0.588 | 0.734 | 0.912 | 0.733 | 0.445 | 0.563 | 0.418 | 0.473 | 0.466 | 0.573 | 0.474 |
| KANEYYPVVII [ADAMTS18_Y765_L769I] | 0.721 | 0.458 | 0.383 | 0.704 | 0.738 | 2.4 | 3.18 | 0.978 | 2.63 | 1.45 | 1.65 | 0.613 | 2.08 | 0.81 | 10.8 | 12.8 |
| CQASLYPSNHD [LRIG1_Y996_G993A] | 0.781 | 0.694 | 0.475 | 0.449 | 0.595 | 0.798 | 1.01 | 1.3 | 1.08 | 0.524 | 0.721 | 0.571 | 0.624 | 0.42 | 0.792 | 0.577 |
| PINEPYGDDLD [JUP_Y693_M697L] | 0.727 | 0.568 | 0.655 | 0.696 | 0.532 | 0.972 | 1.16 | 1.16 | 1.35 | 0.734 | 0.799 | 0.781 | 0.921 | 0.653 | 0.988 | 0.873 |
| QGLRLYRPHLP [BTK_Y617_A622P] | 0.816 | 1.34 | 0.781 | 0.419 | 0.522 | 0.712 | 0.967 | 0.857 | 0.772 | 0.606 | 0.444 | 0.401 | 0.568 | 0.512 | 0.408 | 0.48 |
| GKSHIYFWTLE [EML2_Y230] | 0.902 | 0.713 | 0.548 | 0.577 | 0.538 | 0.818 | 1.3 | 1.3 | 1.22 | 0.496 | 0.588 | 0.513 | 0.539 | 0.669 | 1.07 | 0.8 |
| CLLHCYFSQIR [MCM3AP_Y873] | 1.93 | 1.65 | 1.53 | 0.368 | 0.413 | 0.667 | 1.21 | 1.32 | 0.856 | 0.391 | 0.497 | 0.327 | 0.428 | 0.401 | 0.867 | 0.518 |
| NRLTDYYEPLL [BBS10_Y536] | 0.788 | 0.755 | 1.93 | 1.33 | 3.28 | 1.61 | 1.63 | 0.826 | 2.64 | 2.11 | 8.92 | 1.03 | 6.55 | 3.6 | 7.93 | 11 |
| TPIYPYLLPKS [PLD2_Y580_T577I] | 0.943 | 0.855 | 1.17 | 0.624 | 0.547 | 0.65 | 1.59 | 0.776 | 0.837 | 0.426 | 0.578 | 0.435 | 0.559 | 1.8 | 0.698 | 0.812 |
| EFLHKYKGFKI [SYNE1_Y6953_Q6951H_YF] | 0.832 | 0.998 | 0.34 | 0.508 | 0.435 | 0.697 | 0.667 | 0.765 | 0.857 | 0.379 | 0.458 | 0.318 | 0.264 | 0.431 | 0.545 | 0.397 |
| KNNDGYTDFAE [MCFD2_Y135_I136T_YF] | 0.869 | 0.8 | 5.75 | 0.449 | 0.529 | 0.731 | 0.882 | 1.07 | 0.999 | 0.529 | 0.578 | 0.522 | 0.594 | 0.42 | 0.732 | 0.559 |
| EEDPEYKKKFR [FAM161A_Y278] | 1.14 | 0.904 | 0.751 | 0.642 | 0.487 | 0.647 | 1.01 | 0.99 | 1.1 | 0.608 | 0.427 | 0.61 | 0.441 | 0.466 | 0.544 | 0.66 |
| SEDANYKRVSC [TTC3_Y1288] | 1.15 | 0.646 | 0.594 | 0.442 | 0.532 | 0.82 | 1.06 | 1.02 | 0.886 | 0.491 | 0.558 | 0.612 | 0.55 | 0.449 | 0.696 | 0.418 |
| ALAAPYVLYPS [CEFIP_Y1332_G1337S] | 1.03 | 0.804 | 0.762 | 6.33 | 0.628 | 0.583 | 0.856 | 0.811 | 0.786 | 0.581 | 0.652 | 0.697 | 0.473 | 0.721 | 1.28 | 2.02 |
| KGSEGYLAAIY [NF1_Y2503_T2507I] | 0.911 | 0.606 | 0.54 | 0.898 | 1.09 | 0.563 | 0.673 | 0.912 | 0.78 | 0.493 | 0.525 | 0.8 | 0.561 | 0.485 | 0.552 | 0.572 |
| YPPDGYSRHCE [CTNND1_Y213_Y217C] | 0.9 | 0.666 | 0.693 | 0.462 | 0.555 | 0.738 | 0.816 | 0.941 | 0.883 | 0.514 | 0.461 | 0.585 | 0.487 | 0.505 | 0.568 | 0.496 |

Now from value to sequence, other results behind:

| SH2 binding enrichment (Grb2 SH2) | SH2 binding enrichment (SHP2-C SH2) | SH2 binding enrichment (c-Src SH2) | Sequence | phosphorylation enrichment (c-Src) | phosphorylation enrichment (Hck) | phosphorylation enrichment (c-Abl (mouse)) | phosphorylation enrichment (Jak2) | phosphorylation enrichment (Fes) | phosphorylation enrichment (AncSZ) | phosphorylation enrichment (Fer (mouse)) | phosphorylation enrichment (EPHB1) | phosphorylation enrichment (Fyn) | phosphorylation enrichment (EPHB2) | phosphorylation enrichment (MERTK) | phosphorylation enrichment (FGFR3) | phosphorylation enrichment (FGFR1) |
| --- | --- | --- | --- | --- | --- | --- | --- | --- | --- | --- | --- | --- | --- | --- | --- | --- |
| 0.866 | 0.675 | 0.565 | IGERTYGQVYK [CDK13_Y716_G714R] | 6.07 | 3.64 | 0.536 | 0.516 | 0.555 | 0.507 | 0.392 | 0.409 | 9.16 | 0.416 | 0.408 | 0.41 | 0.381 |
| 1.35 | 0.915 | 0.481 | AAVLNYKAWRD [GRIN2A_Y737_G740W] | 0.396 | 0.436 | 0.808 | 0.646 | 0.656 | 0.839 | 0.338 | 0.408 | 0.35 | 0.276 | 0.386 | 0.462 | 0.534 |
| 0.877 | 1 | 0.509 | HNVAIYEGFAL [ACTC1_Y168_P166A_YF] | 9.03 | 9.95 | 9.06 | 0.972 | 1.3 | 1.28 | 17 | 11.1 | 13.3 | 11.2 | 8.57 | 0.781 | 0.56 |
| 1.2 | 1.35 | 0.725 | LVVFEYMRHGD [NTRK1_Y591_M587V] | 0.374 | 0.475 | 0.476 | 0.761 | 1.03 | 0.875 | 0.456 | 0.577 | 0.46 | 0.556 | 0.392 | 0.625 | 0.486 |
| 1.15 | 1.01 | 0.696 | MCDKEYFSVHN [MET_Y1234_Y1230C_YF] | 0.576 | 0.453 | 0.586 | 1.11 | 0.866 | 1.31 | 0.506 | 0.692 | 0.505 | 0.482 | 0.404 | 1.47 | 1.78 |
| 1.49 | 1.43 | 0.908 | AQMAMYFWEMG [TRPM4_Y577] | 2.62 | 1.36 | 1.11 | 1.37 | 1.45 | 1.38 | 0.682 | 0.995 | 1.1 | 0.914 | 2.67 | 3.09 | 3.25 |
| 1.38 | 1.07 | 2.21 | LGQRIYQFIRS [DYRK1B_Y271_Q275R_YF] | 2.83 | 6.17 | 0.98 | 0.887 | 1.19 | 1.3 | 5.51 | 9.19 | 1.86 | 2.54 | 6.97 | 1.21 | 1.39 |
| 0.827 | 0.512 | 0.461 | LLARLYRGQAL [FGFR4_Y390_G388R] | 0.489 | 0.519 | 0.937 | 0.823 | 0.887 | 0.9 | 0.507 | 0.713 | 0.795 | 0.477 | 0.442 | 0.592 | 0.529 |
| 1.38 | 1.12 | 1.35 | PRARTYCFKQE [KLHDC9_Y175_S171R_YF] | 0.458 | 0.502 | 0.591 | 0.435 | 0.458 | 0.519 | 0.383 | 0.345 | 0.421 | 0.301 | 0.355 | 0.517 | 0.395 |
| 0.934 | 0.574 | 1.5 | IVAEYYDNLPH [DEGS1_Y284_A280V] | 0.958 | 3.07 | 1.25 | 1.53 | 1.38 | 1.9 | 1.37 | 1.09 | 0.682 | 0.924 | 1.51 | 6.4 | 9.37 |
| 0.717 | 0.546 | 0.599 | WQLEIYRASRP [ERCC4_Y594_R589W] | 0.45 | 0.491 | 0.997 | 0.911 | 1.22 | 1.27 | 0.471 | 0.567 | 0.492 | 0.628 | 0.521 | 0.702 | 0.375 |
| 1.76 | 1.27 | 1.56 | KILTHYKRPHT [KMT2D_Y5349] | 0.379 | 0.349 | 0.579 | 0.439 | 0.621 | 0.495 | 0.445 | 0.359 | 0.393 | 0.42 | 0.365 | 0.515 | 0.456 |
